Blank lines part the entries; values can stand above or below the binder they belong to.
How the values were obtained:
[1] = molecular target: T1, hSIRPα expressed on primary human cells (human, UniProt P78324 31-504); assay: flow cytometry on CD14+ enriched monocytes, human donor 2, AF647 goat-anti-mouse IgG
T1 construct: whole, on cells; also called hSIRPα on primary human CD14+ monocytes; on primary human granulocytes
Protocol: Next, the binding of hSIRPα.40A to hSIRPα expressed on primary human CD14⁺ monocytes was investigated. In addition, the ability of hSIRPα.40A to block the interaction between hSIRPα and recombinant hCD47/Fc-protein was assessed. For this purpose, CD14+ monocytes were isolated from Ficoll-purified human peripheral blood mononuclear cells (PBMCs) using RosetteSep human monocyte enrichment cocktail (Stemcell). The percentage of monocytes present after the enrichment was determined by flow cytometry on the FACSVerse (BD Biosciences) based on CD14 staining using an APC-Cy7-conjugated mouse-anti-human CD14 detection antibody (BD Biosciences). […] After this labeling procedure, cells were washed two times, resuspended in PBS/1% BSA containing 0.1 μg/mL DAPI (BioLegend), and analysed by flow cytometry on the FACSVerse (BD Biosciences). Data were processed and analysed with FlowJo V10 software (FlowJo, LLC).
To assess the blocking ability of hSIRPα.40A, CD14+ enriched monocytes cells were seeded in 96-well round bottomed tissue culture plates and incubated for 45 minutes with FcR Blocking Reagent (Miltenyi Biotec) and hSIRPα.40A antibody (20 μg/mL and dilutions thereof) in PBS/1% BSA at 4° C. […] After this labeling procedure, cells were washed two times, resuspended in PBS/1% BSA containing 0.1 μg/mL DAPI (BioLegend), and analysed by flow cytometry on the FACSVerse (BD Biosciences). […]

[2] = molecular target: T2, human SIRPα variant 2 (human, UniProt P78324 31-504); assay: CELISA, CHO-K1 transfectants, domain exchange study
T2 construct: full length ORF on transfected CHO-K1 cells; also called hSIRPαV2; SIRPαV2
Excerpt: (§1) Based on the fold of SIRPα, the extracellular region can be subdivided into three separate domains: the Ig-like (immunoglobulin-like) V-type (IgV), Ig-like C1-type (IgC1), and Ig-like C2-type (IgC2) domain. The IgV domain is also known as the ligand-binding N-terminal domain of SIRPα (which binds to CD47). The human SIRPαV1/β1 mutants were designed on the basis of the full length hSIRPαV1 sequence (SEQ ID NO: 33) and each individual Ig-like domain was substituted for the equivalent domain of human SIRPβ1 (SEQ ID NO: 37). The cDNAs encoding the constructs, hSIRPα-VβC1αC2α (SEQ ID NO: 55), hSIRPα-VαC1βC2α (SEQ ID NO: 57), and hSIRPα-VaC1αC2β (SEQ ID NO: 59) were synthesized (GeneArt) and subcloned into the pCI-neo vector. Binding of hSIRPα.50A to the exchange mutants was tested using CELISA. To this end, CHO-K1 cells were transiently transfected, using Lipofectamine 2000, with the pCI-neo vectors encoding hSIRPαV1, hSIRPαV2, hSIRPβ1, hSIRPα-VβC1αC2α, hSIRPα-VαC1βC2α, and hSIRPα-VαC1αC2β, respectively. The transfected cells were cultured at 37° C., 5% CO₂ and 95% humidity in medium (DMEM-F12 (Gibco) with 5% New Born Calf serum (Biowest) and Pen/Strep (Gibco)) until confluent. Subsequently, cells were trypsinized and seeded in 96-well flat-bottom tissue culture plates and cultured at 37° C., 5% CO₂ and 95% humidity in culture medium until confluent. Then, culture medium was removed and cells were incubated for 1 hour at 37° C., 5% CO₂ and 95% humidity with hSIRPα.50A and anti-hSIRPα clone SE5A5 antibodies. Next, cells were washed with PBS-T and incubated for 1 hour at 37° C., 5% CO₂ and 95% humidity with goat-anti-mouse IgG-HRP conjugate (Southern Biotech). After that, cells were washed three times with PBS-T and anti-hSIRPα immunoreactivity was visualized with TMB Stabilized Chromogen (Invitrogen). Reactions were stopped with 0.5 M H₂SO₄ and absorbances were read at 450 and 610 nm.

[3] = molecular target: T3, hSIRPα-VαC1βC2α (human, UniProt P78324 31-504); assay: as above
T3 construct: domain exchange mutant
T3 chain: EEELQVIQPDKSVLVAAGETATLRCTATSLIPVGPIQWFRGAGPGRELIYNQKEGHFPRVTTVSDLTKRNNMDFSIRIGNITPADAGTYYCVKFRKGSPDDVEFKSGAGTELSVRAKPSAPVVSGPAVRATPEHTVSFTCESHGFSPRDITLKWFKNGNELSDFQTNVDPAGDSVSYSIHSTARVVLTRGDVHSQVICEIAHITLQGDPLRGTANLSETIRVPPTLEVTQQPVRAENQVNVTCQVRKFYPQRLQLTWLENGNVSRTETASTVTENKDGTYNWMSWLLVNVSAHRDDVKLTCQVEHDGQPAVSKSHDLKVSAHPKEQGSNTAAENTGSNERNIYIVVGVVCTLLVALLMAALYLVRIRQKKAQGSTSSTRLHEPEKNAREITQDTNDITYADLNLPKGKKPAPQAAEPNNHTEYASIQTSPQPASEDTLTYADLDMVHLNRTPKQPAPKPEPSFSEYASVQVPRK
Excerpt: as §1

[4] = molecular target: T4, hSIRPα-VαC1αC2β (human, UniProt P78324 31-504); assay: as above
T4 construct: domain exchange mutant
T4 chain: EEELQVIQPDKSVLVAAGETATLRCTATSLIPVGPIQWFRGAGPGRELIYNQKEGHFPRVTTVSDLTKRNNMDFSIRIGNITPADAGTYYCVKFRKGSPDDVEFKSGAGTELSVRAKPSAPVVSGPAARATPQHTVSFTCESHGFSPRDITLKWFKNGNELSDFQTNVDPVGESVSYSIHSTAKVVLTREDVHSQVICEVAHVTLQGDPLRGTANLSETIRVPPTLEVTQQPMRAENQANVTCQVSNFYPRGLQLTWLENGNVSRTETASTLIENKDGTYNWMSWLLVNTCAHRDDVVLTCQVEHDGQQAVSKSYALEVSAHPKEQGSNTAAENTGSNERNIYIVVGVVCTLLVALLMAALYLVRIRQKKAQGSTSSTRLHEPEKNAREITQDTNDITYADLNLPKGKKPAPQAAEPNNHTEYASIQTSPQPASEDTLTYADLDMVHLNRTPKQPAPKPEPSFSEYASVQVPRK
Excerpt: as §1

T1 sequence (P78324 31-504): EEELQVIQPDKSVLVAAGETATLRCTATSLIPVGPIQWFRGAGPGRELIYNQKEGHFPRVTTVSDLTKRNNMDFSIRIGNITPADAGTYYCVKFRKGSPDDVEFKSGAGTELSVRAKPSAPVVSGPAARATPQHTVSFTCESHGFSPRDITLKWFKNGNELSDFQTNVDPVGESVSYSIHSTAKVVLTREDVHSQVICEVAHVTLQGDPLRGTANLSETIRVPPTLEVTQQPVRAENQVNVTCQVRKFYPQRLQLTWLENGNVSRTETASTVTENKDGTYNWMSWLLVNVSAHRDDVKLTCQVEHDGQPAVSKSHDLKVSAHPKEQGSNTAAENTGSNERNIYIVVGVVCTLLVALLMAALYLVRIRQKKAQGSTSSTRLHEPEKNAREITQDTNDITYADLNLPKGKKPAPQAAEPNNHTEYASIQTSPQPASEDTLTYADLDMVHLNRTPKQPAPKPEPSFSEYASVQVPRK

- EC50 (read off the curve) [1]: ~0.7 nM
B1: hSIRPα.40A (antibody, mouse IgG1, kappa, V domains shown)
VH: EVQFQQSGTVLARPGTSVKMSCKASGSTFTSYWMHWVKQGPGQGLQWIGAIYPVNNDTTYNQKFKGKAELTVVTSTSTAYMEVSSLTNEDSAVYYCTRSFYYSLDAAWFVYWGQGTLVTVSA
VL: DIQMTQSPSSLSASLGERVSLTCRASQDIGSRLNWLQQEPDGTIKRLIYATSSLDSGVPKRFSGSRSGSDYSLTISGLESEDFVDYYCLQYASSPFTFGGGTKLEINR
notes: mouse antibody, full chains without signal peptide; also called mouse hSIRPα.40A

- EC50 [2]: 0.215 nM
- EC50 [3]: 0.345 nM
- EC50 [4]: 0.408 nM
B2: hSIRPα.50A (antibody, V domains shown)
VH: QVQLQQSGPELVKPGASVRISCKASGFTFTNYYIHWVKQRPGQGLEWIGWIYPGNVNTKYNEKFKAKATLTADKSSTTAYMQLSSLASEDSAVYFCARPTIIATDFDVWGAGTTVTVSS
VL: DIVMTQSHKFMSTSVGDRVNITCKASQGVGTAVGWYQQKPGQSPRLLIYWASTRHTGVPDRFTGSGSGTDFSLAISNVQSEDLADYFCQQYSTYPFTFGGGTNLEIK
notes: light chain constant domain not tied; also called mouse hSIRPα.50A; hSIRPα.50A.mIgG1

— US20180312587A1 (ADURO BIOTECH HOLDINGS EUROPE B V, published 2018)
